Target: T1, oxidized wild type Prdx6 (H2O2-treated, over-oxidized protein) (human), P30041
T1 chain: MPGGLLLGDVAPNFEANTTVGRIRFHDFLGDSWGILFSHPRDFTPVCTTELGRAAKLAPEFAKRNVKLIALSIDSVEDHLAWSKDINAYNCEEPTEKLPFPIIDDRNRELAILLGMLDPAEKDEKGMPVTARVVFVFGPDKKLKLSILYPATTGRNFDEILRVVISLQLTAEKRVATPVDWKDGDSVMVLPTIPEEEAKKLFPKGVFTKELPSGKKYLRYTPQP
Test: AUC
Settings: remark: other sources report otherwise

B1: oxidized wild type Prdx6 (H2O2-treated, over-oxidized protein), P30041 1-224 (natural protein)
chain: T1 chain
modifications: here or on the partner: C47 over-oxidized (-SOOH/-SOOOH) by H2O2 treatment; C47 over-oxidized (-SOOH/-SOOOH) by H2O2 treatment
- stoichiometry N: 2
